Results: publication doi:10.1101/2024.03.12.584565 (bioRxiv, 2024)

Legend:
[1] = biological target: T1, Flag-tagged Pds5b, co-expressed with Δ86-cyclin A2 (human, UniProt Q9NTI5 1-1447); experiment: pull-down
T1 sequence: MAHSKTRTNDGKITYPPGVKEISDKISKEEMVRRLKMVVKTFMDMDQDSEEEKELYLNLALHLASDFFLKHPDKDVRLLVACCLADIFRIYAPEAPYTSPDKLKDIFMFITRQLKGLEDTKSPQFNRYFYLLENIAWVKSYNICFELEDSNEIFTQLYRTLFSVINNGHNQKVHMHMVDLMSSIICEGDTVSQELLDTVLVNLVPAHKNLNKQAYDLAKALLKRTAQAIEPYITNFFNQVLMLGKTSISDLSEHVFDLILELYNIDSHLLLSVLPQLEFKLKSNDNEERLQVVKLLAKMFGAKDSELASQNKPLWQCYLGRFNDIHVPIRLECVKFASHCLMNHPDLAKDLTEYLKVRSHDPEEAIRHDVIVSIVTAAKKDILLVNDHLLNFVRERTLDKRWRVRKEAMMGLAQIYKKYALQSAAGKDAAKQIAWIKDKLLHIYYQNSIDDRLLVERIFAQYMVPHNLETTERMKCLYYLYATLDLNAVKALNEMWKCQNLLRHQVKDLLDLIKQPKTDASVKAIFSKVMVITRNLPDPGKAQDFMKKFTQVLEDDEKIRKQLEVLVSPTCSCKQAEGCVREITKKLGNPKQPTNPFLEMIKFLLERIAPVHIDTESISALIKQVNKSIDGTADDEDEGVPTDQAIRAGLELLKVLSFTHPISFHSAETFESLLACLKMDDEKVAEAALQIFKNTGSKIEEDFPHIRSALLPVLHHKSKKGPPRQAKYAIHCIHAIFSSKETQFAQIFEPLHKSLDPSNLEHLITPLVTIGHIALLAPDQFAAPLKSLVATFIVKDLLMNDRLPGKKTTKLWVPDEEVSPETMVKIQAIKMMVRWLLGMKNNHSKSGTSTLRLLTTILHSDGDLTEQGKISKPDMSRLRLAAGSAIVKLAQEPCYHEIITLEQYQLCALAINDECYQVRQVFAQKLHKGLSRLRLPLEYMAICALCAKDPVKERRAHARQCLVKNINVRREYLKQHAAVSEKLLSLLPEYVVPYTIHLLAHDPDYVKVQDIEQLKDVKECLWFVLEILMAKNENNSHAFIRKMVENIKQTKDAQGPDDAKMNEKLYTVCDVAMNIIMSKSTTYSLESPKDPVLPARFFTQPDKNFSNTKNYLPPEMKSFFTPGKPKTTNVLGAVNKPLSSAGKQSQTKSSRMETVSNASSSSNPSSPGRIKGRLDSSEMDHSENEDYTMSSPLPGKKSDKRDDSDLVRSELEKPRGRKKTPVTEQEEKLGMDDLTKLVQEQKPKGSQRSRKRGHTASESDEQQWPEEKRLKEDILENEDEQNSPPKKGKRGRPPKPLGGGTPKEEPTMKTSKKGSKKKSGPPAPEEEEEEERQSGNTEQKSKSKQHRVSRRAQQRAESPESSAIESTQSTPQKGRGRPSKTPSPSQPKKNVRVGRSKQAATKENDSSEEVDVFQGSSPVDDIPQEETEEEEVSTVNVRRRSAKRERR

[2] = biological target: T2, Flag-tagged Pds5a (human, UniProt Q29RF7 1-1337); experiment: pull-down
T2 sequence: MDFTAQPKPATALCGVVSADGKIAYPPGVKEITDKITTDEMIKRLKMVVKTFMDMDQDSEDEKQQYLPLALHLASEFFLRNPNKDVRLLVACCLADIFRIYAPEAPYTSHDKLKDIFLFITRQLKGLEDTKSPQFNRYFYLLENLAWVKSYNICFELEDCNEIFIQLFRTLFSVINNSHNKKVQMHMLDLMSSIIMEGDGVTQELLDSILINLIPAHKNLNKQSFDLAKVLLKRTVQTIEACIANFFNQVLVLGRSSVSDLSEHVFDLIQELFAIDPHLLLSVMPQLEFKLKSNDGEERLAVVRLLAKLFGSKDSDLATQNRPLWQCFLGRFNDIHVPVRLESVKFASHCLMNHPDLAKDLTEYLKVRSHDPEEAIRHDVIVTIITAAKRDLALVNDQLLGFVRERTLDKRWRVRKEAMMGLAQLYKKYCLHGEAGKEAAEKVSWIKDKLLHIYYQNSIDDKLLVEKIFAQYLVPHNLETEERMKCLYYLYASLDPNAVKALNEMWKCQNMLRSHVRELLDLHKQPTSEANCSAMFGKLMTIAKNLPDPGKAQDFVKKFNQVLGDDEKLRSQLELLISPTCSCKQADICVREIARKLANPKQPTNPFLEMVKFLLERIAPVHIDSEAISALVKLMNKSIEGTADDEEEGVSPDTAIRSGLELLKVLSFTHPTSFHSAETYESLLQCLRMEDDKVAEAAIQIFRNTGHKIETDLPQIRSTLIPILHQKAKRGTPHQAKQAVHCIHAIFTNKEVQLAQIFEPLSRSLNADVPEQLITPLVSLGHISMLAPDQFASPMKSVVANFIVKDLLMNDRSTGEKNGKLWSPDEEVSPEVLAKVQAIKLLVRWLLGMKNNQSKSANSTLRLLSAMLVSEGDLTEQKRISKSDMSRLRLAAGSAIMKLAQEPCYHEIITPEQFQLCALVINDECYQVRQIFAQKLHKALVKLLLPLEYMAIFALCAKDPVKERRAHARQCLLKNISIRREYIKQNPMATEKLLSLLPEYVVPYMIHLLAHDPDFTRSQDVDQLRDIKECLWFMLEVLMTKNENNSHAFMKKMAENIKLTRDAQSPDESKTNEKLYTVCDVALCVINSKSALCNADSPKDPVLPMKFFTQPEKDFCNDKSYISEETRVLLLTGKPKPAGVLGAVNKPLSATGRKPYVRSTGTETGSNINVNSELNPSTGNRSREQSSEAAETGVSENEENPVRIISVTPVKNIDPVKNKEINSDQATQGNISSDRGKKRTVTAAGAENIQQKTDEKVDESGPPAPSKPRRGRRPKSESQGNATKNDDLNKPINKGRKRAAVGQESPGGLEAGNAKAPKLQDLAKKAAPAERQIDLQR

binding result [1]: binds
binding result [2]: binds
B1: recombinant human Wapl (natural protein)
chain: MTSRFGKTYSRKGGNGSSKFDEVFSNKRTTLSTKWGETTFMAKLGQKRPNFKPDIQEIPKKPKVEEESTGDPFGFDSDDESLPVSSKNLAQVKCSSYSESSEAAQLEEVTSVLEANSKISHVVVEDTVVSDKCFPLEDTLLGKEKSTNRIVEDDASISSCNKLITSDKVENFHEEHEKNSHHIHKNADDSTKKPNAETTVASEIKETNDTWNSQFGKRPESPSEISPIKGSVRTGLFEWDNDFEDIRSEDCILSLDSDPLLEMKDDDFKNRLENLNEAIEEDIVQSVLRPTNCRTYCRANKTKSSQGASNFDKLMDGTSQALAKANSESSKDGLNQAKKGGVSCGTSFRGTVGRTRDYTVLHPSCLSVCNVTIQDTMERSMDEFTASTPADLGEAGRLRKKADIATSKTTTRFRPSNTKSKKDVKLEFFGFEDHETGGDEGGSGSSNYKIKYFGFDDLSESEDDEDDDCQVERKTSKKRTKTAPSPSLQPPPESNDNSQDSQSGTNNAENLDFTEDLPGVPESVKKPINKQGDKSKENTRKIFSGPKRSPTKAVYNARHWNHPDSEELPGPPVVKPQSVTVRLSSKEPNQKDDGVFKAPAPPSKVIKTVTIPTQPYQDIVTALKCRREDKELYTVVQHVKHFNDVVEFGENQEFTDDIEYLLSGLKSTQPLNTRCLSVISLATKCAMPSFRMHLRAHGMVAMVFKTLDDSQHHQNLSLCTAALMYILSRDRLNMDLDRASLDLMIRLLELEQDASSAKLLNEKDMNKIKEKIRRLCETVHNKHLDLENITTGHLAMETLLSLTSKRAGDWFKEELRLLGGLDHIVDKVKECVDHLSRDEDEEKLVASLWGAERCLRVLESVTVHNPENQSYLIAYKDSQLIVSSAKALQHCEELIQQYNRAEDSICLADSKPLPHQNVTNHVGKAVEDCMRAIIGVLLNLTNDNEWGSTKTGEQDGLIGTALNCVLQVPKYLPQEQRFDIRVLGLGLLINLVEYSARNRHCLVNMETSCSFDSSICSGEGDDSLRIGGQVHAVQALVQLFLERERAAQLAESKTDELIKDAPTTQHDKSGEWQETSGEIQWVSTEKTDGTEEKHKKEEEDEELDLNKALQHAGKHMEDCIVASYTALLLGCLCQESPINVTTVREYLPEGDFSIMTEMLKKFLSFMNLTCAVGTTGQKSISRVIEYLEHC
